Experimental data published in PMC4626798 (Scientific Reports, 2015).
“And” between values parts separate entries of the source, which are not always exact repeats. Identical values can stand only once.

T1: GST-Ppz1^Cter (S. cerevisiae, UniProt P26570 345-692)
T1 construct: Ser/Thr protein phosphatase Ppz1, S. cerevisiae, carboxyl terminal domain, Ppz1 (Δ1–344), expressed from pGEX6P1-Ppz1^Cter; also called Ppz1 (Δ1–344); Ppz1 carboxyl terminal domain
T1 sequence (looked up): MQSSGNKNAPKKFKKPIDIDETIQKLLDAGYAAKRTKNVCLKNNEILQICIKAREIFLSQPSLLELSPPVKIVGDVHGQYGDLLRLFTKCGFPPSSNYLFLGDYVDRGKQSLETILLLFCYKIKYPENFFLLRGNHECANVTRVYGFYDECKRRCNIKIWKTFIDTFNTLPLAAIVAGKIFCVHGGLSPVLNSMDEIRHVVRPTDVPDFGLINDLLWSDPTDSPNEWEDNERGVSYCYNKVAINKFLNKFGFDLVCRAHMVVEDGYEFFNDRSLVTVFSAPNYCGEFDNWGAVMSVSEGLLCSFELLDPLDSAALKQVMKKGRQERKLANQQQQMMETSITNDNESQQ

T2: 6 × His-Ppz1^Cter (S. cerevisiae, UniProt P26570 345-692)
T2 construct: Ser/Thr protein phosphatase Ppz1, S. cerevisiae, carboxyl terminal domain (Ppz1^Cter, Δ1–344), first MCS of pETDuet-1; also called N-terminally 6 × His-tagged version of Ppz1^Cter; source: E. coli BL21 (DE3), co-expressed with Hal3 from pETDuet-1; purified as the complex (Ni2+ IMAC, SEC); not shown: His6, N-terminal, kept
T2 sequence (looked up): T1 sequence (looked up)

B1: Hal3 (full length, obtained from GST-Hal3 by PreScission protease treatment) (natural protein, S. cerevisiae, UniProt P36024 1-562, looked up)
chain: MTAVASTSGKQDADHNQSIECPRFSRGQKEILLDHEDAKGKDSIINSPVSGRQSISPTLSNATTTTTKSIMNATGTSGAVVSNTPEPGLKRVPAVTFSDLKQQQKQDSLTQLKNDSERTKSPNSNPAPVSNSIPGNHAVIPNHTNTSRTTQLSGSPLVNEMKDYDPKKKDSALKIVDTMKPDKIMATSTPISRENNKVTAKAPTSITLRKEDAQDQANNVSGQINVRSTPEETPVKQSVIPSIIPKRENSKNLDPRLPQDDGKLHVLFGATGSLSVFKIKPMIKKLEEIYGRDRISIQVILTQSATQFFEQRYTKKIIKSSEKLNKMSQYESTPATPVTPTPGQCNMAQVVELPPHIQLWTDQDEWDAWKQRTDPVLHIELRRWADILVVAPLTANTLSKIALGLCDNLLTSVIRAWNPSYPILLAPSMVSSTFNSMMTKKQLQTIKEEMSWVTVFKPSEKVMDINGDIGLGGMMDWNEIVNKIVMKLGGYPKNNEEEDDDEDEEEDDDEEEDTEDKNENNNDDDDDDDDDDDDDDDDDDDDDDDDEDEDEAETPGIIDKHQ
notes: Hal3 (Sis2), S. cerevisiae, the entire protein, expressed from pGEX6P1-Hal3; also called Sis2; recombinant Hal3; source: E. coli BL21 (DE3), GST-Hal3 purified and digested with PreScission protease
B2: Hal3 (untagged, entire, co-expressed from pETDuet-1) (natural protein, S. cerevisiae, UniProt P36024 1-562, looked up)
chain: B1 chain
notes: Hal3 (Sis2), S. cerevisiae, the entire Hal3, second MCS of pETDuet-1; also called Sis2; untagged version of Hal3; source: E. coli BL21 (DE3), co-expressed with 6 × His-Ppz1^Cter from pETDuet-1; purified as the complex (Ni2+ IMAC, SEC)
B3: 6 × His-Hal3^PD (domain or fragment, S. cerevisiae, UniProt P36024 256-495, looked up)
chain: RLPQDDGKLHVLFGATGSLSVFKIKPMIKKLEEIYGRDRISIQVILTQSATQFFEQRYTKKIIKSSEKLNKMSQYESTPATPVTPTPGQCNMAQVVELPPHIQLWTDQDEWDAWKQRTDPVLHIELRRWADILVVAPLTANTLSKIALGLCDNLLTSVIRAWNPSYPILLAPSMVSSTFNSMMTKKQLQTIKEEMSWVTVFKPSEKVMDINGDIGLGGMMDWNEIVNKIVMKLGGYPKNN
notes: Hal3 (Sis2), S. cerevisiae, PPCDC domain (PD); expected MW with tag 29.1 kDa; also called PPCDC domain of Hal3; source: E. coli BL21 (DE3), purified (Ni2+ IMAC); alone from pET28 or co-expressed with Cab3^PD (pETDuet-1); not shown: His6, N-terminal, kept
B4: Cab3^PD (untagged) (domain or fragment, S. cerevisiae, UniProt P36076 305-508, looked up)
chain: DDKKFHILIGATGSVATIKVPLIIDKLFKIYGPEKISIQLIVTKPAEHFLKGLKMSTHVKIWREEDAWVFDAVNKNDTSLSLNLILHHELRKWADIFLIAPLSANTLAKLANGICNNLLTSVMRDWSPLTPVLIAPAMNTFMYINPMTKKHLTSLVQDYPFIQVLKPVEKVLICGDIGMGGMREWTDIVEIVRRRINEIRKARD
notes: Cab3 (previously Ykl088w), S. cerevisiae, PPCDC domain (PD), residues 305–508; Expected MW 23.3 kDa; could not be made on its own; also called PPCDC domain of Cab3; Ykl088w PD; source: E. coli BL21 (DE3), co-expressed from the second MCS of pETDuet-1 with 6 × His-Hal3^PD and/or 6 × His-Vhs3^PD; co-purified (Ni2+ IMAC)
B5: 6 × His-Vhs3^PD (domain or fragment, S. cerevisiae, UniProt Q08438 288-577, looked up)
chain: DDGKLHVLFGATGSLSVFKLKHMIRKLEEIYGRDKICIQVILTNSATKFFAMKYMRKNKKQHNSIDTSFNSTNSNAGNITGNKKKVASLEKFSIQKTSSNSAASQTNNKQEEEKQMASTTGFPSTLGGSRTYSNSSNVVSQHPQIELPAHIQFWTDQDEWDVWRQRTDPVLHIELRRWADILVVAPLTANTLAKIALGLCDNLLTSVIRAWNPTFPIFLAPSMGSGTFNSIMTKKHFRIIQEEMPWVTVFKPSEKVMGINGDIGLSGMMDANEIVGKIVVKLGGYPDVSA
notes: Vhs3, S. cerevisiae, PPCDC domain (PD), residues 288–577; Expected MW with tag 34.5 kDa; also called PPCDC domain of Vhs3; source: E. coli BL21 (DE3), purified (Ni2+ IMAC); alone from pET28a or co-expressed with Cab3^PD (pETDuet-1); not shown: His6, N-terminal, kept

Assays:
GST-Ppz1^Cter = biological target: T1, GST-Ppz1^Cter; assay: pull-down; GST-Ppz1^Cter (~6 μg) bound to glutathione agarose beads, incubated with increasing amounts of Hal3 (0.5-fold to 6-fold excess) for 1 h at 24 °C; washed with 50 mM Tris-HCl pH 7.5, 150 mM NaCl, 10% glycerol, 2 mM DTT; SDS-PAGE, Coomassie, densitometry; settings: both partners purified
6 × His-Ppz1^Cter = biological target: T2, 6 × His-Ppz1^Cter; assay: SEC; IMAC-purified Ppz1^Cter–Hal3 complex on Superdex 200 HR 10/30, 50 mM Tris-HCl pH 7.5, 270 mM NaCl, 2 mM DTT, 2 mM EDTA; fractions analysed by SDS-PAGE and densitometry; settings: both partners purified
[1] = biological target: the molecule itself; assay: SEC; purified PD proteins and co-purified mixtures on Superose 12, 50 mM phosphate pH 7.0, 150 mM NaCl, 0.4 mL/min
[2] = biological target: the molecule itself; assay: cross-linking; purified PD protein treated with disuccinimydyl suberate (DSS) at 37 °C (15 min Hal3^PD, 40 min Vhs3^PD), SDS-PAGE on 8% gels
6 × His-Hal3^PD = biological target: B3; assay: co-purification by Ni2+ IMAC after co-expression; untagged Cab3^PD co-expressed in E. coli with 6 × His-tagged Hal3^PD and/or Vhs3^PD (binary and ternary mixtures); Ni2+ IMAC, SDS-PAGE and densitometry; settings: partners not purified
6 × His-Vhs3^PD = biological target: B5; assay: as above; settings: partners not purified

Binder: B1
maximal ratio of bound Hal3 to GST-Ppz1^Cter (GST-Ppz1^Cter): ~0.5

Binder: B2
stoichiometry N (6 × His-Ppz1^Cter): ~1

Binder: B3
stoichiometry N [1]: 6 and 12 | stoichiometry N [2]: 3

Binder: B4
ratio of Hal3^PD to Cab3^PD in the co-purified binary mixture (6 × His-Hal3^PD): ≥ 2 fold | ratio of Hal3^PD to Cab3^PD in the co-purified ternary mixture (6 × His-Hal3^PD): ~2 | ratio of Vhs3^PD to Cab3^PD in the co-purified binary mixture (6 × His-Vhs3^PD): ≥ 2 fold | ratio of Vhs3^PD to Cab3^PD in the co-purified ternary mixture (6 × His-Vhs3^PD): ~1

Binder: B5
stoichiometry N [2]: 3
